Test results from PMC5514624.

Columns and labels:
[1] = molecular target: T1, SRCRP2-11-R (Homo sapiens, UniProt Q9UGM3, E4R); assay: EMSA
T1 chain: GRVRVLYRGSW

[2] = molecular target: T2, SRCRP2-11 (Homo sapiens, UniProt Q9UGM3); assay: EMSA
T2 chain: GRVEVLYRGSW

B1: tdTomato1 siRNA (dsRNA)
RNA 1: UUGGUGUCCACGUAGUAGUAG
RNA 2: CUACUACUACGUGGACACCAA
binding result [1]: binds
binding result [2]: binds
